Data set [1] is described as follows: Pharmacokinetics study after s.c. injection in SD rats. The class given is in vivo. The method, then:
Pharmacokinetic studies of EXT-Sol and EXT-SBA-15 were conducted in healthy male SD rats. Sixteen rats were randomly divided into two groups (n = 8) and fasted overnight with free access to water before administration. SD rats were received s.c. administration of EXT-Sol and EXT-SBA-15 at a single EXT dose of 50 μg/kg, respectively. The blood samples (0.5 mL) of EXT-Sol treatment group were collected from the rat’s orbit and at specific time 0, 0.25, 0.5, 1, 1.5, 2, 3, 4, 6, 8 h after injection. The blood samples (0.5 mL) of EXT-SBA-15 treatment group (0.5 mL) were collected at 0, 0.5, 1, 1.5, 2, 3, 5, 8, 12, 24, 36, 48, 72, 120 h. The collected blood samples were centrifuged at 503×g for 10 min to obtain the plasma, which were stored at −80 °C for further analysis. The plasma concentrations of EXT were measured by Exendin-4 ELISA kit according to the instructions supplied by the manufacturer. The relevant pharmacokinetic parameters were analyzed by PKSolver 2.0 [25].

Data set [2] deals with STZ-induced type 2 diabetic ICR mice (blood glucose). In words: In vivo pharmacodynamics study: blood glucose of STZ-induced type 2 diabetic mice. Particulars: s.c., EXT 3 μg/kg/d twice daily, days 0-25, measured before administration, n = 6. The method, then: Type 2 diabetes model was induced by STZ with multiple injection method into ICR mice. Each mouse was injected intraperitoneally with 30 mg/kg⋅d STZ in 0.1 mol/L citric acid buffer (pH 5.0). One week after the injection, mice were fasted for 12 h (with free access to water) before their blood glucose was measured by glucometer (Accu-Chek Performa, Germany). Diabetic mice were considered by fasting blood glucose above 11.1 mmol/L. Six healthy normal ICR mice were used as the blank control group (A). Twenty-four mice that had developed type 2 diabetes were randomly divided into four experimental groups and received s.c. administration of saline (B), EXT-Sol (C), EXT-SBA-15 (D) and SBA-15 (E), respectively. Group A and B received saline twice daily via s.c. administration. Group C received EXT-Sol twice daily with a dose of EXT (3 μg/kg/d). Group D and E were administrated a single injection of EXT-SBA-15 (600 μg/kg) and SBA-15 via s.c. administration, respectively. The blood sample (about 0.2 ml) was collected from the tail-vein on days 0, 1, 5, 10, 15, 20, 25 for all groups, and blood glucose levels were determined measured simultaneously with a glucometer before administration.

Setting [3] is: single EXT dose 50 μg/kg, plasma, Exendin-4 ELISA, Mean ± SD, n = 8.
The mark [4] stands for this setting: single EXT dose 50 μg/kg, plasma, Exendin-4 ELISA, two-compartment model, Mean ± SD, n = 8.

For “EXT-Sol: Exenatide (EXT) solution, injected s.c. as comparator”, in data set [1] (EXT dose 50 μg/kg), the “time at which plasma concentration had decreased to baseline” value came out at 8 h. Moreover, in data set [1] (setting [3]), the AUC0→t amounted to 1.71 ± 0.07 ng⋅ml^−1⋅h, the “AUC0→∞” value is 1.71 ± 0.07 ng⋅ml^−1⋅h, the “MRT mean residence time” value worked out at 68.4 ± 4.2 min and the “c max peak concentration” value was 1.16 ± 0.09 ng⋅ml^−1. In addition, in data set [1] (setting [4]), the “t 1/2(α) half-life of distribution” value worked out at 13.2 ± 1.8 min and the “t 1/2(β) half-life of elimination” value was 36 ± 4.8 min. In addition, the “long-term glucose lowering effect, up to 25 days” value in data set [2] is listed as “not observed”.
